Measurements from article PMC8854392 (2022).
Residue numbers refer to the chain shown, from its start.

B1: Cy.007, chimeric anti-CyRPA monoclonal antibody (chicken variable domains, human IgG1) (antibody, V domains shown)
VH: AVTLDESGGGLQTPGGTLSLVCKGSGFTFSSYEMQWVRQAPGKGLEWVADICIGGSYTGYGPAVKGRATISRDDGQSTVRLQLNNLRAEDTGTYYCAKTARSDYCITGLDDIDAWGHGTEVIVSS
VL: RCALTQPSSVSANPGETVKITCSGGSSDYGWYQQKSPGSAPVTVIYENNKRPSDIPSRFSGSKFGSTHTLTITGVQADDEAVYFCGSRDTNNGAFGAGTTLTVL
B2: Cy.003, chimeric anti-CyRPA monoclonal antibody (chicken variable domains, human IgG1) (antibody, V domains shown)
VH: AVTLDESGGGLQTPGGALSLVCKGSGFFSFSSYTMQWVRQAPGKGLEWVASISSGGGTNYGAAVKGRATISRDNGQSTLRLQLNNLRAEDTGTYYCAKHGVNGCDWSYSVGCVDAWGHGTEVIVSS
VL: RCALTQPSSVSANPGETVKITCSGGSSSYYGWYQQKSPGSAPVTLIYNNQKRPSDIPSRFSGSKSGSTGTLTITGVQAEDEAVYFCGSRDNSGGIFGAGTTLTVL
B3: Cy.009, chimeric anti-CyRPA monoclonal antibody (chicken variable domains, human IgG1) (antibody, V domains shown)
VH: AVTLDESGGGLQTPGGALSLVCKASGFTFSDYAMGWVRQAPGKGLEYVAGIKSDGSFTLYGSTVKGRATISRDNGQSIVRLQLNNLRAEDTGTYYCAKSDDNGGHYSDFSGEIDAWGHGTEVIVSS
VL: RCALTQPSSVSANPGETVKITCSGSSYSYGWYQQKSPGSAPVTVIYYNDKRPSDIPSRFSGSKSGSTGTLTITGVQAEDEAVYFCGNSDSRNAAFGAGTTLTVL
B4: Cy.004, chimeric anti-CyRPA monoclonal antibody (chicken variable domains, human IgG1) (antibody, V domains shown)
VH: AVTLDESGGGLQTPGGALSLVCKASGFDFSSYAMGWVRQAPGKGLEYVAGIRNDGSFTLYTPAVKGRATISRDNGQSTVRLQLNNLRAEDTATYFCTKSADDGGHYSDFSGEIDAWGHGTEVIVSS
VL: B3 VL with S26T, S28N, F84Y, A93V

Tests used:
[1] = target: Cy.009 Fab:CyRPA complex, formed beforehand and purified by SEC (Plasmodium falciparum (3D7 clone) | …, UniProt Q8IFM8 29-362); assay: SPR; TBS+P20, 1 mM CaCl2
[2] = target: Cy.004 Fab:CyRPA complex, formed beforehand and purified by SEC (Plasmodium falciparum (3D7 clone) | …, UniProt Q8IFM8 29-362); assay: SPR; TBS+P20, 1 mM CaCl2
[3] = target: T1, Cy.002 Fab:CyRPA complex, formed beforehand and purified by SEC (Plasmodium falciparum (3D7 clone) | …, UniProt Q8IFM8 29-362); assay: SPR; TBS+P20, 1 mM CaCl2
[4] = target: Cy.007 Fab:CyRPA complex, formed beforehand and purified by SEC (Plasmodium falciparum (3D7 clone) | …, UniProt Q8IFM8 29-362); assay: SPR; PBS+P20
[5] = target: Cy.003 Fab:CyRPA complex, formed beforehand and purified by SEC (Plasmodium falciparum (3D7 clone) | …, UniProt Q8IFM8 29-362); assay: SPR; PBS+P20
[6] = target: T1, Cy.002 Fab:CyRPA complex, formed …; assay: SPR; PBS+P20

| Binder | Kd [1] | Kd [2] | Kd [3] | koff [3] | Kd [4] | Kd [5] | Kd [6] | koff [6] |
| --- | --- | --- | --- | --- | --- | --- | --- | --- |
| B1 | 2.6 nM | 1.6 nM | 11 nM | 0.0024 s⁻¹ | – | – | – | – |
| B2 | 8.6 nM | 13 nM | 77 nM | 0.0048 s⁻¹ | – | – | – | – |
| B3 | – | – | – | – | 2100 nM | 260 nM | 1500 nM | 0.17 s⁻¹ |
| B4 | – | – | – | – | 390 nM | 410 nM | 1800 nM | 0.39 s⁻¹ |
